The RNAGym collection of RNA variant scans (doi:10.1021/acssynbio.7b00057)

B1: Pistol ribozyme (parent)
chain: GGGUCGUUGUUCCAUAAUCGCGUGGAUAUGGCACGCAAGUUUCUACCGGGCACCGUAAAUGUCCGACUGGAGCCGUUCGGGCGGCUAUAAACAGACCUCAGGCCCGAAGCGUGGCGGCACCUGCCGCCGGUGGUAAAAAAGAUCGGAAGAGCACACGUCU

Variants of: B1
Test: aptazyme ON/OFF ratio, guanine; higher = stronger switching; co-transcriptional cleavage with and without guanine

Point of comparison: U7A U8C G9U U10C U11A C12U C13U, “aptazyme ON/OFF ratio” value 1.15. Against it:
- U7A U8C G9U C12U C13A — higher, 1.22
- U7A U8C G9U C12U C13G — lower, 1.12
- U7A U8C G9U C12U C13U — higher, 1.39
- U7A U8C G9U U10A U11A — higher, 1.37
- U7A U8C G9U U10A U11G — higher, 1.31
- U7A U8C G9U U10A U11C — lower, 1.01
- U7A U8C G9U U10G U11A C12U C13G — lower, 1.09
- U7A U8C G9U U10G U11A C12U C13A — lower, 1.06
- U7A U8C G9U U10G U11A C12U C13U — higher, 1.2
- U7A U8C G9U U10C U11A C12U C13A — lower, 1.13
- U7A U8C G9U U10C U11A C12U C13G — lower, 1.09
- U7A U8C G9U U10A U11A C12G C13G — higher, 1.2
- U7A U8C G9U U10A U11A C12G C13A — the same, 1.15
- U7A U8C G9U U10A U11A C12G C13U — higher, 1.34
- U7A U8C G9U U10A U11A C12G — higher, 1.27
- U7A U8C G9U U10A U11A C12A — higher, 1.28
- U7A U8C G9U U10A U11A C12U — lower, 1.12
- U7A U8C G9U U10C U11G C13A — higher, 1.17
- U7A U8C G9U U10C U11G C13U — higher, 1.25
- U7A U8C G9U U10C U11G C13G — higher, 1.31
- U7A U8C G9U U10C U11A C12U — lower, 1.13
- U7A U8C G9U U10C U11A C12G — lower, 1.13
- U7A U8C G9U U10C U11A C12A — lower, 1.14
- U7A U8C G9U U10A U11C C12U C13A — lower, 1.1
- U7A U8C G9U U10A U11C C12U C13U — higher, 1.18
- U7A U8C G9U U10A U11C C12U C13G — lower, 1.12
- U7A U8C G9U U10A C12U C13U — higher, 1.42
- U7A U8C G9U U10A C12U C13G — higher, 1.17
- U7A U8C G9U U10A C12U C13A — higher, 1.29
- U7A U8C G9U U10C C12G C13A — lower, 1.13
- U7A U8C G9U U10C C12G C13U — higher, 1.51
- U7A U8C G9U U10C C12G C13G — higher, 1.33
- U7A U8C G9U U10A U11G C12U C13U — higher, 1.21
- U7A U8C G9U U10A U11G C12U C13G — higher, 1.21
- U7A U8C G9U U10A U11G C12U C13A — higher, 1.17
- U7A U8C G9U U10C U11C — lower, 0.995
- U7A U8C G9U U10C U11G — higher, 1.22
- U7A U8C G9U U10C U11A — higher, 1.23
- U7A U8C G9U U10C U11G C12G C13U — lower, 1.06
- U7A U8C G9U U10C U11G C12G C13A — higher, 1.17
- U7A U8C G9U U10C U11G C12G C13G — lower, 1.11
- U7A U8C G9U U10G U11A C13G — lower, 1.08
- U7A U8C G9U U10G U11A C13U — lower, 1.06
- U7A U8C G9U U10G U11A C13A — lower, 1.04
- U7A U8C G9U U10G U11C — lower, 1.03
- U7A U8C G9U U10G U11A — lower, 1.06
- U7A U8C G9U U10A U11C C12A C13U — higher, 1.23
- U7A U8C G9U U10A U11C C12A C13G — lower, 1.14
- U7A U8C G9U U10A U11C C12A C13A — higher, 1.17
- U7A U8C G9U U10A C13U — the same, 1.15
- U7A U8C G9U U10A C13G — lower, 1.08
- U7A U8C G9U U10A C13A — higher, 1.18
- U7A U8C G9U U10G C12G C13U — higher, 1.28
- U7A U8C G9U U10G C12G C13A — higher, 1.19
- U7A U8C G9U U10G C12G C13G — lower, 1.14
- U7A U8C G9U U10A U11C C12G C13A — higher, 1.23
- U7A U8C G9U U10A U11C C12G C13U — higher, 1.18
- U7A U8C G9U U10A U11C C12G C13G — lower, 1.08
- U7A U8C G9U U10G U11A C12A C13U — higher, 1.41
- U7A U8C G9U U10G U11A C12A C13A — lower, 1.04
- U7A U8C G9U U10G U11A C12A C13G — lower, 1.13
- U7A U8C G9U U10G C12A C13G — higher, 1.18
- U7A U8C G9U U10G C12A C13A — higher, 1.45
- U7A U8C G9U U10G C12A C13U — lower, 1.07
- U7A U8C G9U U10C C13U — higher, 1.19
- U7A U8C G9U U10C C13A — lower, 1.09
- U7A U8C G9U U10C C13G — lower, 1.06
- U7A U8C G9U U10A U11A C12U C13G — lower, 1.12
- U7A U8C G9U U10A U11A C12U C13A — higher, 1.21
- U7A U8C G9U U10A U11A C12U C13U — higher, 1.16
- U7A U8C G9U U10C U11C C12G — lower, 1.07
- U7A U8C G9U U10C U11C C12U — lower, 1.06
- U7A U8C G9U U10C U11C C12A — lower, 1.08
- U7A U8C G9U U10C C12U — lower, 1.08
- U7A U8C G9U U10C C12G — higher, 1.57
- U7A U8C G9U U10C C12A — higher, 1.27
- U7A U8C G9U U10G C13U — higher, 1.24
- U7A U8C G9U U10G C13A — higher, 1.34
- U7A U8C G9U U10G C13G — higher, 1.16
- U7A U8C G9U U10C U11A C12G C13A — lower, 1.11
- U7A U8C G9U U10C U11A C12G C13G — higher, 1.22
- U7A U8C G9U U10C U11A C12G C13U — lower, 1.11
